# Experimental data as given in US8703708.
# Experiments:
# Test in all cases: cell-based or functional assay
# [1] = biological target: Lrp6 + Fzd4 co-expressed on STF (superTOPFLASH) reporter cells (UniProt O88572)
# [2] = biological target: Lrp6 + Fzd7 co-expressed on STF (superTOPFLASH) reporter cells (UniProt O88572)
# [3] = biological target: Lrp5 + Fzd4 co-expressed on STF (superTOPFLASH) reporter cells (UniProt Q91VN0)
# [4] = biological target: Lrp5 + Fzd7 co-expressed on STF (superTOPFLASH) reporter cells (UniProt Q91VN0)
# Chain of Lrp5 + Fzd7 co-expressed on STF (superTOPFLASH) reporter cells (Q91VN0 31-1614 limits assumed, chain 1 of 2, other chains not shown): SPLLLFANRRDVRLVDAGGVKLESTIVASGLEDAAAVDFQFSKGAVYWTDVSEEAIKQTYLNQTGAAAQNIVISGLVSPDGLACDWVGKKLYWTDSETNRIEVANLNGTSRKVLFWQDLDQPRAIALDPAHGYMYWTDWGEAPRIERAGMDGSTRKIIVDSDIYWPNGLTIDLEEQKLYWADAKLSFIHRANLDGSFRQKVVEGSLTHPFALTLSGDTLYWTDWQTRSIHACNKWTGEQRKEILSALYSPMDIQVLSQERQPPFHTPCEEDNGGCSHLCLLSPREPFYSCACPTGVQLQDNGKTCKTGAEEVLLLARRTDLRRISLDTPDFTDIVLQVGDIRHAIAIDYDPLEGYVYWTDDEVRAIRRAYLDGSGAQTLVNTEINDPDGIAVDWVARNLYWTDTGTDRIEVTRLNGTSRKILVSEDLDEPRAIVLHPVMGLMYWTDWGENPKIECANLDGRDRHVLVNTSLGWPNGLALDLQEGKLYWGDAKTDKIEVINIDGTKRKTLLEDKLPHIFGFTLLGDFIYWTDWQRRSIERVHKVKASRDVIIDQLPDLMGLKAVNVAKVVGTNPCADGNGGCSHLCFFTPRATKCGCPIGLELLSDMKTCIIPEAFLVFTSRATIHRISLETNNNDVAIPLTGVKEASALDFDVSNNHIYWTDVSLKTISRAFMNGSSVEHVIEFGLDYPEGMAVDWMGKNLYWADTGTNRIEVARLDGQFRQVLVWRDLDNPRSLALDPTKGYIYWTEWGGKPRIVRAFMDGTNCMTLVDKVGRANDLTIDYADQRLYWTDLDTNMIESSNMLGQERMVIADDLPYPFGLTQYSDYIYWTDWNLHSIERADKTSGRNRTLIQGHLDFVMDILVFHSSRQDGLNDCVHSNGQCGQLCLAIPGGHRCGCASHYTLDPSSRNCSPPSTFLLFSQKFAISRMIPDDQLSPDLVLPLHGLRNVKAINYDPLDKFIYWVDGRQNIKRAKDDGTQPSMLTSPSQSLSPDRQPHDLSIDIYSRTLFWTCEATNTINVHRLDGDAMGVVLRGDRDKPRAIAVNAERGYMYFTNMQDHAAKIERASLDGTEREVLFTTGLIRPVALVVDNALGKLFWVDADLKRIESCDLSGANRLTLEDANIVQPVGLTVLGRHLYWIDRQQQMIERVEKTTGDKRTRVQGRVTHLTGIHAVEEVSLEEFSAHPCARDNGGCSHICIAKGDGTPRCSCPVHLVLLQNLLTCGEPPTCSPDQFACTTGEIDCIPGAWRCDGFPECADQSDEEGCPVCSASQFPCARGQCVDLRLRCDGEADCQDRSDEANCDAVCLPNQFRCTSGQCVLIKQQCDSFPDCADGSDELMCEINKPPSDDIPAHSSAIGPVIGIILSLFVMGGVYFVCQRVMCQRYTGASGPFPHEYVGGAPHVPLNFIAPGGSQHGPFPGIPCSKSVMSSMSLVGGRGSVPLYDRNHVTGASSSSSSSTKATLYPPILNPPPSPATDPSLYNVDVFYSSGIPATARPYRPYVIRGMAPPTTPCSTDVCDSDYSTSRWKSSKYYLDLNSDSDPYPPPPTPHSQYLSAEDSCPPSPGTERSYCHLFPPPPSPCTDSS
# Chain of Lrp6 + Fzd4 co-expressed on STF (superTOPFLASH) reporter cells (O88572 20-1613 limits assumed, chain 1 of 2): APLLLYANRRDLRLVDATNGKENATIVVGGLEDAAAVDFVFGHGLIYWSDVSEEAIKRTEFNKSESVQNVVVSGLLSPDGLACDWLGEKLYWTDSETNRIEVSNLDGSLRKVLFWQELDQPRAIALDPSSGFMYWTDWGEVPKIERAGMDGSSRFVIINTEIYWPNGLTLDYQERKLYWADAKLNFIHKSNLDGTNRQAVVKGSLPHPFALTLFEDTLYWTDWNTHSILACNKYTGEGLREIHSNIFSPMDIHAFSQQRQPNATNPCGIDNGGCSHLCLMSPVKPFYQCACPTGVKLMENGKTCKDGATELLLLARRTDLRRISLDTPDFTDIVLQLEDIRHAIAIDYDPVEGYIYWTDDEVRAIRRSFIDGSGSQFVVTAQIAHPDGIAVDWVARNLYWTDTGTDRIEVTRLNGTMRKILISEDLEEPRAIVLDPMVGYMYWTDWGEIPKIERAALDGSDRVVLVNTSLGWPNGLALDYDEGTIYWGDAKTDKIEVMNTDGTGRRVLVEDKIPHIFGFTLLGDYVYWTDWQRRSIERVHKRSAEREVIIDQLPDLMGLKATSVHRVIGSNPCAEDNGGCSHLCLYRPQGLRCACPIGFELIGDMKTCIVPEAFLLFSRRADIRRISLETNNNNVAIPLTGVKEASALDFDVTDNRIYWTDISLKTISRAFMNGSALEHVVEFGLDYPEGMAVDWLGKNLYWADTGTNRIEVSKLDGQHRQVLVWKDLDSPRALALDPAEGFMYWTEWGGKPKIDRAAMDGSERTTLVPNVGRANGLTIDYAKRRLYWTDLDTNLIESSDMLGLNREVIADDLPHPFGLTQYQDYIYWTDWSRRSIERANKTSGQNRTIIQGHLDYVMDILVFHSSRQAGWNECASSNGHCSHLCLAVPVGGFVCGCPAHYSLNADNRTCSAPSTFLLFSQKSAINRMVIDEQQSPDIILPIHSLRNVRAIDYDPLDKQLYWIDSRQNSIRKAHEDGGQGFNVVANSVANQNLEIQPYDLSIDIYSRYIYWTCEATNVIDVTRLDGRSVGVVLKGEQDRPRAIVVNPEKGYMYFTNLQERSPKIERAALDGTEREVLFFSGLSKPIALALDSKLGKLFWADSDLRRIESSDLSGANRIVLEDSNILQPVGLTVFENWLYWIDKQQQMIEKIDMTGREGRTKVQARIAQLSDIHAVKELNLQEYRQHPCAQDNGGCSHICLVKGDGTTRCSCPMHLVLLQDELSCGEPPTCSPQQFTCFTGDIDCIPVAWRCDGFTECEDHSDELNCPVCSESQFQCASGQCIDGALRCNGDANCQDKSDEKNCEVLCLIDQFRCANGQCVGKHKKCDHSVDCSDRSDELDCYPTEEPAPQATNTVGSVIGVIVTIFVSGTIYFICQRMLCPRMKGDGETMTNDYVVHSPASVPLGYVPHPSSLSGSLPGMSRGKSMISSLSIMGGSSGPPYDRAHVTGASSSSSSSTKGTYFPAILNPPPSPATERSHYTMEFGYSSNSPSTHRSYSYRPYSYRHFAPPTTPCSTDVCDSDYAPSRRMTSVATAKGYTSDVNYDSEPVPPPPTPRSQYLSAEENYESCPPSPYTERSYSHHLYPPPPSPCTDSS
# Chain of Lrp6 + Fzd4 co-expressed on STF (superTOPFLASH) reporter cells (Q61088 37-537 limits assumed, chain 2 of 2, further chain): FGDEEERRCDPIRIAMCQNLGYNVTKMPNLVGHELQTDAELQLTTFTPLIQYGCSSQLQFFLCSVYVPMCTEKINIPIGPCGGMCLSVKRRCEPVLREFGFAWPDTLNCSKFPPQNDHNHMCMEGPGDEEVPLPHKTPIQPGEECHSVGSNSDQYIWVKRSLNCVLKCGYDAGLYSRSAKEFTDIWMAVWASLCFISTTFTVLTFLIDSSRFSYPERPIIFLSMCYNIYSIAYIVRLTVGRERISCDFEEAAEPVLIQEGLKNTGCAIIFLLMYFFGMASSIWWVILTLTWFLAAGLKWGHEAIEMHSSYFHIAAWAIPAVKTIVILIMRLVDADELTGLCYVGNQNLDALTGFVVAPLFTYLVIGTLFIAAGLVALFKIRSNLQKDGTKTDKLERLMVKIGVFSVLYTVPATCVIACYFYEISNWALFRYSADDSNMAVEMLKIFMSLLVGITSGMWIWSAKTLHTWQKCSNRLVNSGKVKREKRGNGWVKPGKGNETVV
# Chain of Lrp6 + Fzd7 co-expressed on STF (superTOPFLASH) reporter cells (O88572 20-1613 limits assumed, chain 1 of 2, other chains not shown): as the sequence (O88572 20-1613 limits assumed, chain 1 of 2) above
# Chain of Lrp5 + Fzd4 co-expressed on STF (superTOPFLASH) reporter cells (Q91VN0 31-1614 limits assumed, chain 1 of 2): as the sequence (Q91VN0 31-1614 limits assumed, chain 1 of 2, other chains not shown) above
# Chain of Lrp5 + Fzd4 co-expressed on STF (superTOPFLASH) reporter cells (Q61088 37-537 limits assumed, chain 2 of 2, further chain): as the sequence (Q61088 37-537 limits assumed, chain 2 of 2, further chain) above
substance,measurement,setting,value
"Wnt7b (ORF cloned from C57BL6 kidney cDNA, expressed by 293 cells or bone marrow macrophages) (from UniProt P28047 25-349) (ligand)","Firefly Luciferase, absolute light units, STF reporter cells co-cultured with 293-Wnt7b (293-control: 573) (absolute light units)",[1],10100
same,"Firefly Luciferase, absolute light units, STF reporter cells co-cultured with 293-Wnt7b (293-control: 464) (absolute light units)",[2],11500
same,"Firefly Luciferase, absolute light units, STF reporter cells co-cultured with 293-Wnt7b (293-control: 6430) (absolute light units)",[3],26900
same,"Firefly Luciferase, absolute light units, STF reporter cells co-cultured with 293-Wnt7b (293-control: 16172) (absolute light units)",[4],51600
